The text below walks through data of the nanobody polyreactivity screen of Harvey et al. (2022).

The nature of the data set: yeast display, Sf9 membrane polyspecificity reagent, FACS + sequencing; frameworks hold sequencing errors. Summed up: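 Polyreactivity labels are assigned by the sorting gate from which each nanobody was recovered. The gates were low and high (top ~1%), set on anti-HA fluorescence for expression and streptavidin fluorescence for reagent binding. Before sorting, galactose-induced (36–48 hours) yeast display cells were stained for 1 hour at 4 °C with 10% biotinylated, detergent-solubilized Sf9 membrane reagent.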
For the sequence “QVQLVESGGGLVHAGGSLRLSCAASGFIFKFYAMGWYRQAPGKERELVAAISKSGGRTYYADSVKGRFTISRDNAKNTVYLQMNSLKPEDTAVYYCNAPSVGAAFDYWGQGTQVTVSS”, the “polyreactivity (PSR sort gate)” value was “high polyreactivity”.
As for “QVQLVESGGGLVHAGGSLRLSCAASGFIFKRYTMGWYRQAPGKERELVATINWNGGNTYYADSVKGRFTISRDNAKNTVYLQMNSVKQDDTAVYYCAATRYVTYGSWGQGTQVTVSS”, the entry is “high polyreactivity”; as for “QVQLVESGGGLVHAGGSLRLSCAASGFIFSSYAMGWYRPAPGKERELVAAITSRGGSTYYADSVKGRYTISRDNAKNTVYLQMNSLKPEDTAVYYCAADQGVPSTYDYWGQGTQVTVSS”, “low polyreactivity”; as for “QVQLVESGGGLVHAGGSLRLSCAASGFIFSYNARGWYRQAPGKERELVASISRADSTNYADSVKGRFTISRDNAKNTVYLQMNSLKPEDTAVYYCAAAYWPVVWFYYWGQGTQVTVSS”, “low polyreactivity”.
Then “QVQLVESGGGLVHAGGSLRLSCAASGFIFYQYAMGWYRQAPGQERELVAAISKSGGNTNYADSVKGRFTISRDNAKNTVYLQMNSLKPEDTAVYYCAADRGQRGLYYWGQGTQVTVSS”, with “high polyreactivity”; and “QVQLVESGGGLVHAGGSLRLSCAASGFILSANDMGWYRQAPGQERELVADIDSSGRTNYADSVKGRFTISRDNAKNTVYLQMISLKPEDTAVYYCATPPDDKGGGYLGFDYWGQGTQVTVSS”, with “low polyreactivity”.
Then “QVQLVESGGGLVHAGGSLRLSCAASGFTFPNYAMGWYRQAPGKERSLVAAITSGGGRTNYADSVKGRFTISRDNAKNTVYLQMISLKPEDTAVYYCAKTRVRGSEFGYWGQGTQVTVSS”, with “low polyreactivity”; and “QVQLVESGGGLVHAGGSLRLSCAASGFTFSFYAMGWYRQAPGKERELVATITGSGVRTYYADSVKGRFTISRDNAKNTVYLQMNSLKPEDTAVYYCNRQGFTHRGYYWGQGTQVTVSS”, with “high polyreactivity”; and “QVQLVESGGGLVHAGGSLRLSCAASGFTFTAYARGWYRQATGKERELVAAINWSGSRTYNADSVKGRFTISRDNAKNTVYLQMNSLKPEDSAVYYCNTATSKSSYRHYDYWGQGTLVTVSS”, with “high polyreactivity”.
Turning to “QVQLVESGGGLVHAGGSLRLSCAASGFTFVFYVMGWYRQAPGQERELVAGISGRGASTYYADSVKGRFTISRDNAKNTVYLQMNSLIPEDTAVYYCNAVHWGGTYWGLDYWGQGTQVTVSS”, the “polyreactivity (PSR sort gate)” value was “low polyreactivity”.
As for “QVQLVESGGGLVHAGGSLRLSCAASGFTFWYYTMGWYRQAPGKERELVAAITASGGNTYYADSVKGRFTISRDNAKNTVYLQMYSLKPEDTAVYYSNAVSLKFTRKYDYWGQGPQVTVSS”, the entry is “high polyreactivity”; as for “QVQLVESGGGLVHAGGSLRLSCAASGFTFYRNTMGWYRQAPGKERELVAAISTRAGSTYYADSVKGRFTISRDNAKNTVYLQMNSLKPEDTAVYYCAVLTYRGRFEYWGQGTQVTVSS”, “high polyreactivity”.
Then “QVQLVESGGGLVHAGGSLRLSCAASGGIFAGNVMGWDRQAPGKERYLVAAIDGDGRTYYADSVKGRFTISRDNAKNTVYLQMYSQKPEDTAVYYCAADAGVRGQYDDIDEGNYWGLGTQVTVSS”, with “low polyreactivity”.
Then “QVQLVESGGGLVHAGGSLRLSCAASGGTFDVNAMGWYRQAPGKERELVATISGGGSTNYADSVNGRFTISRDNAKNSVYLQINSLKPEDTAVYYCAAESEPIRNRERDYWGQGTQVSVSS”, with “low polyreactivity”.
On to “QVQLVESGGGLVHAGGSLRLSCAASGGTFGYYAMGWYRQAPGQERDLVAAISGSGGSTYYADSVKGRYTISRDHAKNTFYFQMNSLKPEDTAVYYCNAYIFGEVPNNYYWGQGTQVTVSS”, for which the “polyreactivity (PSR sort gate)” value is recorded as “high polyreactivity”.
Then “QVQLVESGGGLVHAGGSLRLSCAASGIILSDNSMGWYRQAPGKEREVVAAITGSGGSTYYADSVKGRFTISRDNAKNTVYLQMNSLKPEDTAVYYCAADGPYGYYYGHYGYWGQGTQVTVSS”, with “low polyreactivity”; and “QVQLVESGGGLVHAGGSLRLSCAASGITLVRYAMGWYRQAPGKERELVAAISSSGGSTYYADSVKGRFTISRDNAKNTVYLQMNSLKPEDTAVYYCNAYVHSRRVEFNYWGQGTQVTVSS”, with “high polyreactivity”; and “QVQLVESGGGLVHAGGSLRLSCAASGITSSQNAMGWYRQAPGKERELVAAISWRGGSTYYADSVKGRFTISRDNAKNNVYLQMNSLKAEDTAVYYCNVVKRSLRYDYWGQCTQVTVSS”, with “high polyreactivity”.
In the case of “QVQLVESGGGLVHAGGSLRLSCAASGITYQAYAMGWYRQAPGKEREMVAAINDSGSSTYYADSVKGRFTISRDNAKNTVYLQMNSLKPEDTAVYYCAAYLWFWGQGTQVTVSS”, the “polyreactivity (PSR sort gate)” value is given as “low polyreactivity”.
Then “QVQLVESGGGLVHAGGSLRLSCAASGLIFRGYAMGWYRQAPGKERELVAAISKSGGSTYYADSVKGRFTISRDNAKNTVYLQLNSLKPEDTAVYYCITDYVWKYFLSSQYDYWGQGTQVTVSS”, with “high polyreactivity”; and “QVQLVESGGGLVHAGGSLRLSCAASGLTFYRYAMGWYRQAPGKERELVAAIRSNVVTTYYADSVKGRFTISRDNAKNTVYLQMNSLKPEDTAVYYCAARFGRSAQPGYDYWGQGTQVTVSS”, with “high polyreactivity”; and “QVQLVESGGGLVHAGGSLRLSCAASGNIPPGNAMGWYRQAPGKERELVAAITASDGSTYYADSEKGRFTISRDHDKNTVYLQMNSLKPEDTAVYYCAKEQVYTYYLEYEYWGQGTQVTVSS”, with “high polyreactivity”.
In the case of “QVQLVESGGGLVHAGGSLRLSCAASGRIFATNVMGWYRQAPGKETEMVAAISRSGASTYYADSVKGRFTISRDNAKTSVYLQMNSLKPEDTAGYYCADRRFYYGDRYDYWGQGTQVTVSS”, the “polyreactivity (PSR sort gate)” value is reported as “high polyreactivity”.
Then “QVQLVESGGGLVHAGGSLRLSCAASGRIFSYYTMGWYRQAPGKERELVAAITASDGDTYYADSVKGRFTISRDNAMNTVYLQMNSLKPEDTAVYYCAADFWYYHTRMDYWGKGTQVTVSS”, with “low polyreactivity”; and “QVQLVESGGGLVHAGGSLRLSCAASGRIFVRYAMGWYRQAPGKERELVAAISSSGSSTYYADSVKGRFTISRDNAKNTVYLQMNSLKPEETAVYYCAAASVRYPRYEYWGQGTQVTVSS”, with “high polyreactivity”; and “QVQLVESGGGLVHAGGSLRLSCAASGRTFKKYAMGLYRQAPGKERELVAAISWSGGTTYYADSVKGRFTISRDNAKNTVYLQMNSLKPEDTAVYYCAARVSRTGDGYYYYWGQGTQVTVSS”, with “high polyreactivity”.
“QVQLVESGGGLVHAGGSLRLSCAASGRTFKVYAMGWYRQAPGKERELVASISRSGGSTYYSDSVKGRFTISRDIAKNTVFLQRNSLKPEDTAVYYCAADFCFYGSRVWEYDYWGQGTQVTVSS”: the “polyreactivity (PSR sort gate)” value is “high polyreactivity”.
For “QVQLVESGGGLVHAGGSLRLSCAASGRTFRAYAMGWYRQAPRKERDLVAAISGGGGSTYYADSVKGRFTISRDNAKNTVYLQMNRLKPEYTAVYYCAVKGTQKLAKYNYWGQGTQVTVSS”, the “polyreactivity (PSR sort gate)” value is “high polyreactivity”.
As to “QVQLVESGGGLVHAGGSLRLSCAASGSIFAGYAMGRYRQAPGKERELVAAITSGGRTYYADSVKGRFTISRDNAKNTVYLQMNSLKPEDTAVYYCGKRWYTKTGYDYWGQGTQVTVSS”, the “polyreactivity (PSR sort gate)” value was “high polyreactivity”.
As to “QVQLVESGGGLVHAGGSLRLSCAASGSIFPPYAMGWYRQAPVKERELVAAITRSGGSTYYADSVKGRFTISRDNAKNTVYLQLNSLIPEDTAVSDCADRYPGGYGYWGQGTQVTVSS”, the “polyreactivity (PSR sort gate)” value is on record as “high polyreactivity”.
Then “QVQLVESGGGLVHAGGSLRLSCAASGSIFTDYAMGWYRQAPGKERELVAVIDIDGSTYYADSVKGRFTISRDNEKNSVYLQMNSLKPEDTAVYYCAAGYTYYSLYGYWGQGTQVTVSS”, with “low polyreactivity”; and “QVQLVESGGGLVHAGGSLRLSCAASGSIFTVNAMGWYRQAPGKERELVAAIDGSSGSTNYADSEKGRFTISRDNAKNTVYLQMNSLKPEDTAVYYCAADWSYEYGYWGQGTQVTVSS”, with “low polyreactivity”.
On to “QVQLVESGGGLVHAGGSLRLSCAASGSIFYHYAMGWYRQAPGKERELVAAITWSGGSTYYADSVKGRFTISRDNAKNTVYLQMNSLKPEDTAVYYCATSSNVEFGYWGQGTQVTVSS”, for which the “polyreactivity (PSR sort gate)” value was “low polyreactivity”.
Turning to “QVQLVESGGGLVHAGGSLRLSCAASGSIFYRYAKGWYIQAPGKERDLVAAITYSGGRTYYADSVKGRFTISRDNAKNSVYLKMNILKPEDTAVYYCAAEKQSYGSPKGYDYWGQGTQVTVSS”, the “polyreactivity (PSR sort gate)” value is “low polyreactivity”.
Then “QVQLVESGGGLVHAGGSLRLSCAASGSIFYYYAMGWYRPAPGKERELVAAIYNGGSTYYADSVKGRFTISRDNAKNTVYLEMNSLKPEDTAVYYCNAGYSYWYRDLGYDSWGQGTQVTVSS”, with “low polyreactivity”; and “QVQLVESGGGLVHAGGSLRLSCAASGSIYIFNAMGWYRQAPGKEREFVARIRRDSSTYYADSVKGRFTISRDNAKNTVYLQMNSLKPEDTAVYYCAAKRVYRRVELNSWGQGTQVTVSS”, with “low polyreactivity”; and “QVQLVESGGGLVHAGGSLRLSCAASGSTFAYNAMGWYRQAPGKERELVDAIDWSDGITYYADSVKGRFTISRDNAKNTVYLQMNSLKPEDTAVYYCAAEDGYTDSRAYGYDYWGQGTQVTVSL”, with “low polyreactivity”.
As for “QVQLVESGGGLVHAGGSLRLSCAASGSTFDPNAMGWYRQAPGKERELVAAISWSGGSTYYADSVKGRFTISRDNAKNTVYLQMNSQKPEYTAVYYCNAQFYVSYSYTNDYWGQGTQVTVSS”, the entry is “low polyreactivity”; as for “QVQLVESGGGLVHAGGSLRLSCAASGSTFGYYAIGWNRQAPGKERELVAVITGSGGSTYYADSVKGRFTISRDYAKNTVYLQMNSLKPEDTAVYYCAARRWNPTYEYWGQGTQVTVSS”, “high polyreactivity”.
Then “QVQLVESGGGLVHAGGSLRLSCAASGSTFHRYAMGWYRQAPGKERELVARINGSGGSTYYADSVKGRFTISRDNAKNSVYLQMNSLIPEDTAVYYCAAELDVYVSIGSRFHFDYWGQGTQVTVSS”, with “low polyreactivity”; and “QVQLVESGGGLVHAGGSLRLSCAASGSTFIRNAMGWYRQAPGKERELVAAISSSGGRTYYADSVKGRITISRDNAKNTVYVQMNSLKPEDTAVYYCAARYVPPWGRRYYYWGQGTQVTVSS”, with “high polyreactivity”.
